Laboratory results from the supplement of paper PMC9170038.

Tested on: K4 kissing-loop RNA reporter
Experiment: apparent KD of K4 kissing-loop reporter; higher = weaker reporter binding
Settings: Eterna round: R107
Description: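 RNA-MaP round R107: designed RNA switches with theophylline, tryptophan, arginine or FMN aptamers are transcribed on-chip within common flanks. They are titrated with a labelled K4 kissing-loop RNA reporter in RNA-MaP buffer (100 mM Tris pH 7.5, 80 mM KCl, 4 mM MgCl2), without ligand or with the indicated ligand. Median apparent KD per design.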

[1] = input ligand: theophylline 20 uM
[2] = input ligand: tryptophan 2.4 mM
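Also: bound reporter read as fluorescence of individual clusters on recovered sequencing chips by microscopy, with normalized cluster intensities fitted with a binding model.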

Sequence | apparent KD of K4 kissing-loop reporter (input ligand: FMN 200 uM) [nM] | apparent KD of K4 kissing-loop reporter (input ligand: arginine 13.2 mM) [nM] | apparent KD of K4 kissing-loop reporter (input ligand: none) [nM] | apparent KD of K4 kissing-loop reporter [1] [nM] | apparent KD of K4 kissing-loop reporter [2] [nM]
UGACUGGACUGAAGGAGCGCUGAACUCCUAGUGAUGUUAGGAUAACGAGACAAAGUCUCGAAGCAGGUAGGUCGCAGUCUAGUCU | 118 | 95.3 | 112 | 123 | 108
UGACUGGACUGAAGGAGCGCUGAACUCCUAGUGAUGUUAGGAUAACGAGACAAAGUCUCGCGGCAGGUAGGUCGCAGUCUAGUCU | 122 | 93.3 | 109 | 99.3 | 106
UGACUGGACUGAAGGAGCGCUUAACUCCUAGUGAUGUUAGGGAAACGAGACAAAGUCUCGAAGCAGGUAGGUCGCAGUCUAGUCU | 216 | 164 | 217 | 211 | 194
UGACUGGACUGAAGGAGCGUUCAGGUAGGUCGCUAUGGAGUGAUGUUCCAUAGAAGGAGCGAACAGGUAGGUCGCAGUCUAGUCU [ArgBS 30 #DoubleAptamer #SwitchBubble] | 181 | 100 | 111 | 167 | 120
UGACUGGACUGAAGGAGCGUUGAAGGAGCGUAAGCAGUGAUGUUGCUUACAGGUAGGUCGCAGCAGGUAGGUCGCAGUCUAGUCU [ArgBS 28 #DoubleAptamer #SwitchBubble] | 134 | 102 | 122 | 115 | 122
UGAUAAAGCAGUGAUGUUGCAAGAAAUGAUACCAGUUAAGAAAAGAACCCUUGGCAGCAUAAAGUGCGCUCUAAUGAGUGUGCUU [theophylline a same state] | 141 | 183 | 156 | 231 | 126
UGAUAAUGCAGUGAUGUUGCUAGAAACGAUACCAGUUAAGAAAAGAACCCUUGGCAGCGUAAAGUGCGCUCUAAUGAGUGUGCUU [#10 K4 Theophylline A Same State] | 164 | 195 | 194 | 212 | 132
UGAUACCAGACGGCCGCCACUAGGACCGGGAGUGAUGUUCCCAAAUUAAAAUACUCGGCCGCCACUAGGACCGGGUCUGGUAUCU [TrypBX 26 #DoubleAptamer #SwitchBubble] | 244 | 269 | 295 | 360 | 113
UGAUACCAGACGGCCGCCACUCCCGUAAGUCAAAGACUUACGAAGAGUAUCGUCCAGUGAUGUUGGAGGACCGGGUCUGGUAUCU [FiskerMod 10 - Jieux - Exclusion - Tryptophan B] | 344 | 298 | 338 | 320 | 729
UGAUACCAGACGGCCGCCACUCCUGCAAGUCAAAGACUUGCUAAAGGAAUCGUCCAGUGAUGUUGGAGGACCGGGUCUGGUAUCU [TrypBX 18 #SwitchBubble #Palindromic #StaticStem] | 1040 | 745 | 1160 | 890 | 602
UGAUACCAGACGGCCGCCACUCCUGCAGUCAAAGACUGCUAGGAAAUAUUCGUCCAGUGAUGUUGGAGGACCGGGUCUGGUAUCU [TrypBX 10 #SwitchBubble #Palindromic #StaticStem] | 791 | 600 | 740 | 633 | 894
UGAUACCAGACGGCCGCCACUGCACCAGUCAAUGACUGAGUGUAGUAUUGCUCAGUGAUGUUGAGUAGGACCGGGUCUGGUAUCU [Mod of Eli's TrypBX 8] | 109 | 113 | 108 | 128 | 115
UGAUACCAGACGGCCGCCACUGCGCCAGUCAAUGACUGAGCGCGGUGGCGCUCAGUGAUGUUGAGCAGGACCGGGUCUGGUAUCU [Mod of Eli's TrypBX 8 v5] | 149 | 126 | 146 | 144 | 147
UGAUACCAGACGGCCGCCACUGGGACCGGGAGUGAUGUUCCGAAAAUUAAAUGCUCGGCCGCCACUAGGACCGGGUCUGGUAUCU [TrypBX 29 #DoubleAptamer #SwitchBubble] | 727 | 407 | 446 | 231 | 453
UGAUACCAGACGGCCGCCACUUCCGUAAGUCAAAGACUUACCAAGAGAAUCGUCCAGUGAUGUUGGAGGACCGGGUCUGGUAUCU [FiskerMod 7 - Jieux - Exclusion - Tryptophan B] | 931 | 654 | 979 | 849 | 872
UGAUACCAGACUGAUACCAGCCAGUGAUGUUGGCUGAAAUCAGGGUCAAAGACCCUGUCUGGCCCUUGGCAGCAGUCUGGUAUCU [TheoBX 19 #SwitchBubble #StaticStem] | 329 | 251 | 291 | 332 | 281
UGAUAGCCAGUGAUGUUGGCAUGUACUGAAGGAGCGCGUGGAAACGCAGGUAGGUCGCAGUUCCUUGCCAAUUGAUCGAAAGAUC [#09 K4 Arginine A Exclusion] | 249 | 288 | 320 | 395 | 239
UGAUAGGACAGAAGGAGCGGAAGUGAUGUUUCCAAUGGAAUUAAGGUGUCAAAGACACCCUUCCAGGUAGGUCGCUGUCCUAUCU [ArgBX 18 #Palindromic #SwitchBubble #StaticStem] | 156 | 161 | 155 | 159 | 145
UGAUAGGACAGAAGGAGCGGAAUGCUGUCCAAAAGGACAGCAAAUAUAAAAGGAGUGAUGUUCCAGGUAGGUCGCUGUCCUAUCU [ArgBX 20 #SwitchBubble #StaticStem] | 271 | 206 | 219 | 234 | 203
UGAUAGGACAGAAGGAGCGGGAGUGAUGUUCCCAAAAGAAUAAGGUGUCAAAAGACACCCUUCCAGGUAGGUCGCUGUCCUAUCU | 82.2 | 131 | 106 | 119 | 87.4
UGAUAGGACAGAAGGAGCGGGAGUGAUGUUCCCAAAAGGGUAAGGUGUCAAAAGACACCCUCCCAGGUAGGUCGCUGUCCUAUCU | 155 | 191 | 154 | 175 | 148
